# Test results: the RNAGym collection of RNA variant scans (doi:10.1093/nar/gkz1192)
# B1: CPEB3 Ribozyme (parent)
# chain: UAACAGGGGGCCACAGCAGAAGCGUUCACGUCGCAGCCCCUGUCAGAUUCUGGUGAAUCUGCGAAUUCUGCUGUAUAUCUC
# Variants of: B1
# Assay: self-cleavage, relative activity (ratio to wild type); higher = more cleavage; in vitro, sequencing
# Procedure, shortened: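 CPEB3 self-cleaving ribozyme mutant libraries were made by rounds of error-prone PCR, barcoded, and transcribed in vitro with T7 RNA polymerase for 5 hours at 37°C. Cleavage occurred during transcription and a 15 min DNase I step before EDTA stop. RNAs were reverse transcribed with template switching and Illumina-sequenced, with DNA sequencing mapping barcodes to variants. Relative activity is the variant's cleaved/total read fraction divided by wild type's (minimum 5 reads), averaged across three batches.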
row,Variant,self-cleavage
1,U51A G55U,1.08
2,U51C G55U,0.73
3,U51C G55A,0.75
4,G53A U67C,0.41
5,G53A U67A,0.55
6,U54A A64C,0.16
7,U54A A64G,0.92
8,U54A A64U,0.37
9,G52U U80C,1.05
10,U51A G70A,0.61
11,G52U U72G,0.99
12,G52U U72A,0.73
13,G53C U60A,0.56
14,G53C U60C,0.55
15,G52C A77C,1.11
16,G52C A77G,1.16
17,G53C A57G,1.1
18,U54A,1.09
19,U51A U60C,0.59
20,U51A U60A,0.64
21,U51G A56U,0.52
22,U51G A56C,0.55
23,U51G A56G,0.65
24,G53A G61A,0.73

row,Variant,self-cleavage
1,G52A U60A,0.4
2,G52A U60C,0.78
3,G52A U60G,0.44
4,G53U A64G,0.97
5,G53A U69A,0.67
6,G53A U69C,0.69
7,G53C U69C,0.64
8,G53C U69A,0.49
9,G53U U74A,1.2
10,G53U U74C,1.18
11,G53A U76C,1.01
12,G52C A56G,1.12
13,G53U U67C,0.21
14,G53U C68U,1.13
15,U51A U66C,0.42
16,U51A U66A,0.51
17,G53U U72C,1.2
18,G53U U72A,0.94
19,U51A C71U,0.73
20,G52U U76C,1.19
21,G52U U76G,1.19
22,G52U U76A,1.24
23,G53A A77G,1.18
24,U51C U54A,1.03

row,Variant,self-cleavage
1,U51C U54C,1.07
2,U51C U54G,0.82
3,U51G A77U,1.16
4,U51G A77G,1.1
5,U51G G61A,0.45
6,G53A U58G,0.24
7,G53A U58C,0.98
8,G53A U58A,0.48
9,G53U C81G,1.24
10,G53A A57G,0.97
11,G52U A56G,1.14
12,G53U U76C,1.22
13,G53U U54A,0.98
14,U51G U80C,1.11
15,U51G U80A,1
16,U51C C59U,0.68
17,U51C C59A,0.29
18,U51A G73A,1.15
19,G53C U76C,1.06
20,G53C U76A,1.22
21,G52C U67C,0.57
22,G52C U67A,0.88
23,U51C C68G,0.69
24,U51C C68U,1.14

row,Variant,self-cleavage
1,U51C A56G,0.84
2,U51C A56C,0.31
3,U51C A56U,0.74
4,U51C A75C,1.21
5,U51C A75U,0.98
6,U51C A75G,1.01
7,G52C U69C,0.86
8,U51C G52C,1
9,U51C G52A,1.15
10,U51C G52U,0.94
11,U51C C79A,1.24
12,G53C U80C,0.96
13,G53C U80A,1.22
14,G53C A64U,0.42
15,G53C A64G,1.05
16,U54A A57U,1.04
17,U54A A57C,0.77
18,U54A A57G,0.91
19,G52A U80A,1.15
20,G52A U80C,1.18
21,G53A G73C,1.14
22,G53A U54C,0.92
23,G53A U72G,1.22
24,G53A U72C,1.23

row,Variant,self-cleavage
1,G53A U72A,0.79
2,U51G U66C,0.21
3,G53A G55C,1.01
4,G53A G55A,0.87
5,U51A U69A,0.64
6,U51A U69C,0.67
7,G52C U72A,1
8,G52C U72C,1.24
9,U51C A64U,0.42
10,U51C A64G,0.81
11,U51A U54G,0.43
12,U51A U54A,1.04
13,U51A U54C,1.07
14,G52U A65G,0.51
15,G52U A65U,0.28
16,G53C C71U,0.57
17,G52A A75G,0.99
18,U54A A56U,0.66
19,U54A A56G,0.82
20,U51C U76G,1.16
21,U51C U76A,1.21
22,U51C U76C,1.07
23,G53C A65G,0.67
24,U51C G63U,1.07

row,Variant,self-cleavage
1,U51C G63A,0.61
2,G52A U54A,1.16
3,G52A U54C,1.09
4,G52A U54G,1.16
5,U51G G53C,1.19
6,U51A C79U,1.18
7,U51A C79G,1.17
8,G52U U66C,0.54
9,G52U U66A,0.64
10,U51C U80C,1.15
11,U51C U80G,1.17
12,U51C U80A,1.13
13,U51G U54C,1.06
14,U51G U54G,0.24
15,U51G U54A,1.28
16,G53C C62G,0.29
17,G52U U58C,0.87
18,U51C G53C,1.01
19,U51C G53U,1.2
20,U51C G53A,1.18
21,U51C U60G,0.4
22,U51C U60C,0.36
23,U51C U60A,0.49
24,U51G A57G,0.74

row,Variant,self-cleavage
1,U51C G70A,0.47
2,G52U G61C,0.22
3,G52U G61A,1.02
4,G53C A56G,0.53
5,U54A A65G,0.55
6,U54A A65U,0.26
7,U54A A65C,0.29
8,G52U G63U,1.2
9,G52U G63A,0.99
10,G53C U67G,0.54
11,G53C U67C,0.17
12,G52U U67A,0.71
13,G52U U67G,0.33
14,G52U U67C,0.32
15,U51G C68A,0.45
16,G52U U54A,1.09
17,G52U U54C,1.14
18,U51A G52C,1.09
19,U51A G52A,1.21
20,U51A G52U,1.16
21,G52C U54G,1.12
22,G52C U54A,1.14
23,G52A U72A,1.13
